Usually Kd stands for the equilibrium constant for the complex coming apart. Low readings indicate tighter binding, high ones weaker binding. For orientation: stoichiometry N means a count of units in the complex or per binding partner.

The assay deals with Wild type CXCL12 (CXCL12-WT) (UniProt P48061-2 22-89). Kind of assay: ITC. Background: ITC needs no label: the signal is the heat of the interaction.
Chain of Wild type CXCL12 (CXCL12-WT) (P48061 22-89): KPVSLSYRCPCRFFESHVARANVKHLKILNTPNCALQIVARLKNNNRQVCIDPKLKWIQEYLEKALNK

B1: ACKR1^N-term, sixty-amino acid peptide corresponding to the extracellular N-terminus of ACKR1 (domain or fragment, UniProt Q16570 1-60, looked up)
chain: MGNALHRAELSPSTENSSQLDFEDVWNSSYGVNDSFPDGDYGANLEAAAPAHSANLLDDS
With B1, the dissociation constant (Kd) was 4 µM and the “stoichiometry N” value was around 0.5.
